Data published in paper PMC11638888 (2024).

B1: mCherry-MYO10-SLC26A4-Ct (NanoSPD bait) [mouse] / μ2-MID-EGFP (NanoSPD prey) [mouse] (parent complex)
chain 1: RVQFPSWNGLGSVPSTDIYKSITHYKNLEEPEGVKILRFSSPIFYGNVDGFKKCINSTVGFDAIRVYNKRLKALRRIQKLIKKGQLRATKNGIISDIGSSNNAFEPDEDVEEPEELNIPTKEIEIQVDWNSELPVKVNVPKVPIHSLVLDCGAVSFLDVVGVRSLRMIVKEFQRIDVNVYFALLQDDVLEKMEQCGFFDDNIRKDRFFLTVHDAILHLQNQVKSREGQDSLLETVARIRDCKDPLDLMEAEMNAEELDVQDEAMRRLAS
chain 2: SETGALKTFITQQGIKSQHQTKEEQSQITSQVTGQIGWRREGIKYRRNELFLDVLESVNLLMSPQGQVLSAHVSGRVVMKSYLSGMPECKFGMNDKIVIEKQGKGTADETSKSGKQSIAIDDCTFHQCVRLSKFDSERSISFIPPDGEFELMRYRTTKDIILPFRVIPLVREVGRTKLEVKVVIKSNFKPSLLAQKIEVRIPTPLNTSGVQVICMKGKAKYKASENAIVWKIKRMAGMKESQISAEIELLPTNDKKKWARPPISMNFEVPFAPSGLKVRYLKVFEPKLNYSDHDVIKWVRYIGRSGIYETRC

Variants of: B1
Assay: NanoSPD assay; HeLa cells; mean of biological replicate means; parent: 2.7e+03; read off a plot

Row | Variant | response [A.U.]
1 | chain 1 Y19A, chain 1 Y45A, chain 1 Y180A | ~530
2 | chain 1 Y25A | ~190
3 | chain 1 Y19A, chain 1 Y25A, chain 1 Y45A, chain 1 Y180A | ~210

Variants of: B1
Assay: NanoSPD assay; HeLa cells; mean of biological replicate means; parent: 1.3e+04; read off a plot

Row | Variant | response [A.U.]
4 | chain 1 L28A | ~2000
